Assay results reported in patent US20120213844A1 (ALZA, published 2012).
Where two headings read alike, the source gives them in different places. Positions of bridges follow the written chain, without caps; N, C: chain ends. No end group written: not given here.

Experiments:
[1] = target: T1, sEGFR-MMB (dimeric sEGFR mimetibody) (human); assay: phage ELISA on coated sEGFR-MMB, chemiluminescence (background typically <200 units)
T1 construct: Disulfide-linked homodimer: QIQ, sEGFR, flexible linker, J segment, human IgG1 hinge, CH2, CH3; also called sEGFR-Fc; dimeric EGFR
Method: (§1) The protein solution was removed and wells were rinsed twice with Tris-Buffered Saline containing 0.05% Tween-20 (TBS-T) using a plate washer (Embla). The wells were blocked with Starting Block in TBS for 1 hr at room temperature and rinsed twice with TBS-T. An equal volume of phage supernatant and Starting Block in TBS were incubated in the wells for 1 hr at room temperature, and the wells were rinsed five times with TBS-T. Anti-M13/horseradish peroxidase conjugate (Amersham), diluted 1:5000 in Starting Block in TBS, was added into the wells and incubated for 1 hour at room temperature, and then the wells were rinsed five times with TBS-T. Finally, chemiluminescent peroxidase substrate (Roche) was added to the wells, and chemiluminescence was measured on a Tecan plate reader.

[2] = target: T2, human EGFR on tumor cells (human, UniProt P00533 25-1210); assay: flow cytometry on A431 cells, without EGF
T2 construct: whole, on cells; also called EGFR on A431 cells; EGFR on MDA-MB-468 cells

[3] = target: T1, sEGFR-MMB (dimeric sEGFR mimetibody); assay: phage ELISA on coated sEGFR-MMB, chemiluminescence (background typically <200 units); remark: listed apart in the source
Method: as §1

[4] = target: T1, sEGFR-MMB (dimeric sEGFR mimetibody); assay: as above; remark: listed apart in the source
Method: as §1

[5] = target: T3, Streptavidin; assay: phage ELISA on streptavidin-coated wells without receptor [panel C]
T3 construct: also called Streptavidin alone; SA
Method: as §1
(§2) Confirmatory Phage ELISA. […] The binding reaction was incubated for 1 hr at room temperature, and then bound phage were detected with anti-M13/HRP as above. For ELISAs with biotinylated receptors, streptavidin at 5 μg/ml was coated in the wells overnight at 4° C. […] The wells were rinsed with TBS-T and then blocked with Starting Block. Bound phage were washed and detected with anti-M13/HRP as described above.

[6] = target: T4, Control-MMB (CNTO 360) (Homo sapiens (Human), UniProt P0DOX5 111-449 = IgG part); assay: phage ELISA on coated Control-MMB in the presence of EGF [panel B]
T4 construct: MMB scaffold without a peptide; described as human IgG1 heavy chain dimer lacking the variable and most of the CH1 domains; also called blank mimetibody scaffold protein
Method: as §1, §2

[7] = target: T1, sEGFR-MMB (dimeric sEGFR mimetibody); assay: phage ELISA on coated sEGFR-MMB, chemiluminescence (background typically <200 units); remark: listed apart in the source
Method: as §1

[8] = target: T1, sEGFR-MMB (dimeric sEGFR mimetibody); assay: as above; remark: listed apart in the source
Method: as §1

[9] = target: T4, Control-MMB (CNTO 360); assay: phage ELISA, Control-MMB coated at 5 ug/ml
Method: The plates were held overnight at room temperature, washed twice with TBST (0.5M Tris Base, 9% NaCl, 0.05% tween, pH 7.6), and loaded with 200 μL per well of Starting Block (Pierce). […] The plates were held at room temperature for 1.5 hours for blocking. Plates were then washed twice with TBST and phage were added. The phage solutions were crude phage supernatant from overnight cultures diluted four-fold with Starting Block. After a one-hour incubation, the plates were washed thrice with TBST and 100 μL of a 1:5000 dilution of phage binding antibody conjugate (α-M13-HRP) was added to the wells. […] After a one-hour incubation the plates were washed five times with TBST, 100 μL of POD (BM Chemiluminescence ELISA substrate; Roche Applied Science) was added, and chemiluminescene recorded.

[10] = target: T2, human EGFR on tumor cells; assay: cell-based or functional assay

T1 sequence (chain, as listed by the source limits assumed): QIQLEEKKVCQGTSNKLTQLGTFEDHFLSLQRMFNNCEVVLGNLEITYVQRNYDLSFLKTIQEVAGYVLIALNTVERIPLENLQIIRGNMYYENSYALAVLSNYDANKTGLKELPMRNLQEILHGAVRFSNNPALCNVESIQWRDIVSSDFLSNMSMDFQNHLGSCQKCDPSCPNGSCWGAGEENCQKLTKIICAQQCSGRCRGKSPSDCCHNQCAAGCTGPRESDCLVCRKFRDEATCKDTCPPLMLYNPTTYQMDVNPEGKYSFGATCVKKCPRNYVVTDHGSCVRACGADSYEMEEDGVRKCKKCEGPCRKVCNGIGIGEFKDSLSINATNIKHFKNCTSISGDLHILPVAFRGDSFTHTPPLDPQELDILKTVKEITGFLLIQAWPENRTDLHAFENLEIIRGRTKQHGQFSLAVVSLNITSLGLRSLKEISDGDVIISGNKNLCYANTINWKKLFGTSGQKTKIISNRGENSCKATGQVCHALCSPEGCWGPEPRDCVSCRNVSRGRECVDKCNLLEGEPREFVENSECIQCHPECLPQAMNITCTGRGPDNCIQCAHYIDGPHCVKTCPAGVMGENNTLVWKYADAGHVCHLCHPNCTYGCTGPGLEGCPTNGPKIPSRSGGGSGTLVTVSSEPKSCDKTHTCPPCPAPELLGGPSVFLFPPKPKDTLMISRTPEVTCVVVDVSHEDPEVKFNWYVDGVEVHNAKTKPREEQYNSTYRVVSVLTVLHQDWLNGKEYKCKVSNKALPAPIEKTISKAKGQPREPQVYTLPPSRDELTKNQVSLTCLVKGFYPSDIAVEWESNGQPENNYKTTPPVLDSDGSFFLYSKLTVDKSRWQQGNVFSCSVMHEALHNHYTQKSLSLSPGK

B1: phage clone displaying SEQ ID NO: 35 (S18 hit) (peptide)
chain: GGGRGCVVFGDNIYCIVGGGSGGSGG
notes: pIX phagemid display, library S18; not shown: M13 phage coat protein pIX (MSVL...)
ELISA [1]: 22000 units

B2: P190-MMB construct 4316 (Fc fusion)
chain: GGDPCTWEVWGRECLQGGGGSGGGGSGGGGSGGGGSCPPCPAPEAAGGPSVFLFPPKPKDTLMISRTPEVTCVVVDVSQEDPEVQFNWYVDGVEVHNAKTKPREEQFNSTYRVVSVLTVLHQDWLNGKEYKCKVSNKGLPSSIEKTISKAKGQPREPQVYTLPPSQEEMTKNQVSLTCLVKGFYPSDIAVEWESNGQPENNYKTTPPVLDSDGSFFLYSRLTVDKSRWQEGNVFSCSVMHEALHNHYTQKSLSLSLGK
notes: Human IgG4 hinge-CH2-CH3 with two Leu to Ala
fold increase in FACS signal [2]: ~10 fold

B3: phage clone displaying SEQ ID NO: 17 (S15 hit) (peptide)
chain: GGGPIDDESLPVLYCVTSGGGSGGSGG
notes: pIX phagemid display, library S15; not shown: M13 phage coat protein pIX (MSVL...)
ELISA [3]: 1780 units

B4: phage clone displaying SEQ ID NO: 43 (S20 hit) (peptide)
chain: GGGPTCDSATRRVLTICADGGGSGGSGG
notes: pIX phagemid display, library S20; not shown: M13 phage coat protein pIX (MSVL...)
ELISA [4]: 5420 units

B5: phage clone P176 (SEQ ID NO: 48) (peptide)
chain: GGGKTCVSTTFDLWFVCFAGGGSGGSGG
notes: pIX phagemid display, library S20; also called PP176; not shown: M13 phage coat protein pIX (MSVL...)
ELISA [4]: 37400 units
binding result [5]: no binding
binding result [6]: no binding

B6: phage clone displaying SEQ ID NO: 41 (S19 hit) (peptide)
chain: GGGCDCREAVSASLVCRYGGGSGGSGG
notes: pIX phagemid display, library S19; not shown: M13 phage coat protein pIX (MSVL...)
ELISA [7]: 3350 units

B7: phage clone P180 (SEQ ID NO: 37) (peptide)
chain: GGGMICYLVDSGNIICYKGGGSGGSGG
notes: pIX phagemid display, library S19; also called PP180; not shown: M13 phage coat protein pIX (MSVL...)
ELISA [7]: 8810 units

B8: phage clone P177 (SEQ ID NO: 52) (peptide)
chain: GGGDACTMVFLWCSLGGGSGGSGG
notes: pIX phagemid display, library S16; also called PP177; not shown: M13 phage coat protein pIX (MSVL...)
ELISA [8]: 8660 units

B9: phage clone displaying SEQ ID NO: 24 (S18 hit) (peptide)
chain: GGGAKCIAFGNSVYCLNGGGSGGSGG
notes: as for B1
ELISA [1]: 31500 units

B10: phage clone P174 (SEQ ID NO: 51) (peptide)
chain: GGGSGCLDALWQCVYGGGSGGSGG
notes: pIX phagemid display, library S16; also called PP174; not shown: M13 phage coat protein pIX (MSVL...)
ELISA [8]: 34600 units

B11: phage clone P175 (SEQ ID NO: 13) (peptide)
chain: GGGLPDDSLPELICKVRGGGGSGGSGG
notes: pIX phagemid display, library S15; also called PP175; not shown: M13 phage coat protein pIX (MSVL...)
ELISA [3]: 6790 units

B12: phage clone displaying SEQ ID NO: 32 (S18 hit) (peptide)
chain: GGGSDCVLFGSKLFCSAGGGSGGSGG
notes: as for B1
ELISA [1]: 35300 units

B13: phage clone displaying SEQ ID NO: 47 (S20 hit) (peptide)
chain: GGGSVCVGTAFPGWMVCGPGGGSGGSGG
notes: as for B4
ELISA [4]: 4770 units

B14: phage clone displaying SEQ ID NO: 14 (S15 hit) (peptide)
chain: GGGHVSLQSLPELICVVSGGGSGGSGG
notes: as for B3
ELISA [3]: 1360 units

B15: phage clone displaying SEQ ID NO: 20 (S15 hit) (peptide)
chain: GGGTVFTLPELVCVVAGTGGGSGGSGG
notes: as for B3
ELISA [3]: 1520 units

B16: phage displaying P190 on pIX (SEQ ID NO: 55) (peptide)
chain: GGGDPCTWEVWGRECLQGGGSGGSGG
notes: pIX phagemid display, library S18; on average one peptide per particle; also called PHPEP190; pIX-190; not shown: M13 phage coat protein pIX (MSVL...)
binding result [9]: no binding

B17: phage clone displaying SEQ ID NO: 27 (S18 hit) (peptide)
chain: GGGDSCIQFANLLYCAIGGGSGGSGG
notes: as for B1
ELISA [1]: 53200 units

B18: phage clone displaying SEQ ID NO: 33 (S18 hit) (peptide)
chain: GGGTDCVRFGETIYCIVGGGSGGSGG
notes: as for B1
ELISA [1]: 13300 units

B19: phage clone displaying SEQ ID NO: 45 (S20 hit) (peptide)
chain: GGGDSCCSFLTDGTVVCSLGGGSGGSGG
notes: as for B4
ELISA [4]: 9540 units

B20: phage clone displaying SEQ ID NO: 34 (S18 hit) (peptide)
chain: GGGYDCVSFGAVAYCPQGGGSGGSGG
notes: as for B1
ELISA [1]: 3200 units

B21: phage clone displaying SEQ ID NO: 11 (S15 hit) (peptide)
chain: GGGELGLPTLLCWPTDTLGGGSGGSGG
notes: as for B3
ELISA [3]: 9380 units

B22: phage clone displaying SEQ ID NO: 18 (S15 hit) (peptide)
chain: GGGPIFSSLPVLYCTSQLGGGSGGSGG
notes: as for B3
ELISA [3]: 1420 units

B23: phage clone displaying SEQ ID NO: 30 (S18 hit) (peptide)
chain: GGGAYCSFVAGDLVCQVGGGSGGSGG
notes: as for B1
ELISA [1]: 19800 units

B24: phage clone displaying SEQ ID NO: 46 (S20 hit) (peptide)
chain: GGGYICTPSDIDSWYICYLGGGSGGSGG
notes: as for B4
ELISA [4]: 6620 units

B25: phage clone displaying SEQ ID NO: 25 (S18 hit) (peptide)
chain: GGGRDCIIFDKTVYCVIGGGSGGSGG
notes: as for B1
ELISA [1]: 17100 units

B26: phage clone displaying SEQ ID NO: 49 (S20 hit) (peptide)
chain: GGGLLCATTSFRDWFVCFTGGGSGGSGG
notes: as for B4
ELISA [4]: 4510 units

B27: phage clone displaying SEQ ID NO: 10 (S15 hit) (peptide)
chain: GGGYRLFVDESIFFCTRLGGGSGGSGG
notes: as for B3
ELISA [3]: 3080 units

B28: phage clone displaying SEQ ID NO: 28 (S18 hit) (peptide)
chain: GGGTDCIRFGVLWYCLVGGGSGGSGG
notes: as for B1
ELISA [1]: 4750 units

B29: phage clone displaying SEQ ID NO: 19 (S15 hit) (peptide)
chain: GGGGADTLPDLLCWESSLGGGSGGSGG
notes: as for B3
ELISA [3]: 5720 units

B30: phage clone displaying SEQ ID NO: 23 (S18 hit) (peptide)
chain: GGGAGCIAFVDVVYCARGGGSGGSGG
notes: as for B1
ELISA [1]: 6380 units

B31: phage clone displaying SEQ ID NO: 26 (S18 hit) (peptide)
chain: GGGKHCILFEKTVYCAKGGGSGGSGG
notes: as for B1
ELISA [1]: 9110 units

B32: phage clone displaying SEQ ID NO: 29 (S18 hit) (peptide)
chain: GGGRACITFGKVVYCEVGGGSGGSGG
notes: as for B1
ELISA [1]: 30700 units

B33: phage clone displaying SEQ ID NO: 44 (S20 hit) (peptide)
chain: GGGWMCFLEGYGASLMCQCGGGSGGSGG
notes: as for B4
ELISA [4]: 4800 units

B34: phage clone displaying SEQ ID NO: 40 (S19 hit) (peptide)
chain: GGGAFCRLDFNQWLTCLVGGGSGGSGG
notes: as for B6
ELISA [7]: 2580 units

B35: phage clone displaying SEQ ID NO: 15 (S15 hit) (peptide)
chain: GGGNWFSLPTLLCFPLNPGGGSGGSGG
notes: as for B3
ELISA [3]: 3670 units

B36: phage clone P173 (SEQ ID NO: 31) (peptide)
chain: GGGTDCVIFGLETYCLRGGGSGGSGG
notes: pIX phagemid display, library S18; also called PP173; not shown: M13 phage coat protein pIX (MSVL...)
ELISA [1]: 37900 units

B37: phage clone displaying SEQ ID NO: 38 (S19 hit) (peptide)
chain: GGGYDCMIRADGSLICWCGGGSGGSGG
notes: as for B6
ELISA [7]: 1290 units

B38: phage clone P179 (SEQ ID NO: 39) (peptide)
chain: GGGGPCVLIRDYYLLCLEGGGSGGSGG
notes: pIX phagemid display, library S19; also called PP179; not shown: M13 phage coat protein pIX (MSVL...)
ELISA [7]: 14000 units

B39: P190-DOXIL (peptide)
peptide: DPCTWEVWGRECLQ
modifications: disulfide 3-12 (inferred); not fully specified (N-terminus); also: inserted into doxorubicin-loaded liposomes
IC50 D4, cell killing of MDA-MB-468 cells (1 h treatment, 4 days) [10]: 120 µg/mL
IC50 D6, cell killing of MDA-MB-468 cells (1 h treatment, 6 days) [10]: 35 µg/mL

B40: phage clone displaying SEQ ID NO: 16 (S15 hit) (peptide)
chain: GGGSTITSLPTLQCWPILGGGSGGSGG
notes: as for B3
ELISA [3]: 13300 units

B41: phage clone P178 (SEQ ID NO: 53) (peptide)
chain: GGGRWCYFWWITICELGGGSGGSGG
notes: pIX phagemid display, library S17; also called PP178; not shown: M13 phage coat protein pIX (MSVL...)
ELISA [8]: 7910 units

B42: phage clone displaying SEQ ID NO: 12 (S15 hit) (peptide)
chain: GGGVSGILPILVCHPAATGGGSGGSGG
notes: as for B3
ELISA [3]: 1110 units

B43: phage clone displaying SEQ ID NO: 21 (S15 hit) (peptide)
chain: GGGLPDLICAVDSGTSGAGGGSGGSGG
notes: as for B3
ELISA [3]: 1160 units
